Experimental data published in patent publication US12319739 (F STAR DELTA, dated 2025).

Assays:
[1] = biological target: mouse CD137 expressed on cells (mouse, UniProt P20334 24-256); test: cell-based or functional assay
mouse CD40 = mouse CD40 (mouse, UniProt P27512 24-193, limits assumed, chemically biotinylated (EZ-Link Sulfo-NHS-SS-Biotin)); test: BLI (Octet), biotinylated receptor on streptavidin sensors
Method: (§1) The specificity of the anti-mouse CD137 Fcabs for mouse CD137 were tested in HeID1.3 "mock" mAb² format and measured by BLI in an Octet QKe system by testing for binding of the Fcabs to other mouse TNFRSF receptors (CD40, OX40, GITR). Streptavidin biosensors (PALL ForteBio 18-5021) to coat 10 ng/μl mouse CD40, GITR, OX40 receptors (all obtained from R&D Systems and biotinylated using an EZ-Link Sulfo-NHS-SS-Biotin kit from Thermoscientific #21328). Anti-mouse CD137 Fcabs in mock mAb² format were diluted 1:1 in kinetic buffer (PALL 18-1092) to a final concentration of at least 1 μM. Antigen-coated sensors were dipped into the mAb² solutions for 180 seconds followed by 180 seconds in 1× kinetic buffer. Antibodies for each of the TNFRSF receptors were used as positive controls.

mouse GITR = biological target: T1, mouse GITR (mouse, UniProt O35714 20-153, limits assumed, chemically biotinylated (EZ-Link Sulfo-NHS-SS-Biotin)); test: as above
T1 sequence (looked up): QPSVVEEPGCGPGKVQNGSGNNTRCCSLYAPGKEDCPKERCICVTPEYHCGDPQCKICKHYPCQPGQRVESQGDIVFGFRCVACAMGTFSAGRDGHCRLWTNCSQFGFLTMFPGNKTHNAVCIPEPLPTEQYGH
Method: as §1

cMSLN-His-Avi = biological target: T2, cMSLN-His-Avi (cynomolgus, single biotin on the Avi tag in the biotinylated form); test: SPR
T2 construct: Monomeric; also called cyno MSLN-His-Avi; cMSLN-Avi-His
T2 chain: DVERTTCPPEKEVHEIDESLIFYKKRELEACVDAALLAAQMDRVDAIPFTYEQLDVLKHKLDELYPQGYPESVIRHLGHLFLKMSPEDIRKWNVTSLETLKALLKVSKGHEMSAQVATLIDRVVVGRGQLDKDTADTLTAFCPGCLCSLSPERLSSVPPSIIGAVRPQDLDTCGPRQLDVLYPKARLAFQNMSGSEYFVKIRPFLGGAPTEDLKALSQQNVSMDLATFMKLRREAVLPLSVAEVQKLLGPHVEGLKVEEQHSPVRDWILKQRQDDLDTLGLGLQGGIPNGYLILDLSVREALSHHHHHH
Method: The association time was 5 min and the dissociation time was 5 min. Running buffer was HBS-EP (GE Healthcare BR100188). Flow cells were regenerated by injecting Glycine-HCl pH2.1 at a flow rate of 30 μl/min for 15 seconds. The data was analysed as described in Example 7.1.

human CEACAM-5-His-Fc = biological target: T3, human CEACAM-5-His-Fc (human, UniProt P06731 35-685); test: ELISA, antigen coated 1 µg/ml
T3 sequence (looked up): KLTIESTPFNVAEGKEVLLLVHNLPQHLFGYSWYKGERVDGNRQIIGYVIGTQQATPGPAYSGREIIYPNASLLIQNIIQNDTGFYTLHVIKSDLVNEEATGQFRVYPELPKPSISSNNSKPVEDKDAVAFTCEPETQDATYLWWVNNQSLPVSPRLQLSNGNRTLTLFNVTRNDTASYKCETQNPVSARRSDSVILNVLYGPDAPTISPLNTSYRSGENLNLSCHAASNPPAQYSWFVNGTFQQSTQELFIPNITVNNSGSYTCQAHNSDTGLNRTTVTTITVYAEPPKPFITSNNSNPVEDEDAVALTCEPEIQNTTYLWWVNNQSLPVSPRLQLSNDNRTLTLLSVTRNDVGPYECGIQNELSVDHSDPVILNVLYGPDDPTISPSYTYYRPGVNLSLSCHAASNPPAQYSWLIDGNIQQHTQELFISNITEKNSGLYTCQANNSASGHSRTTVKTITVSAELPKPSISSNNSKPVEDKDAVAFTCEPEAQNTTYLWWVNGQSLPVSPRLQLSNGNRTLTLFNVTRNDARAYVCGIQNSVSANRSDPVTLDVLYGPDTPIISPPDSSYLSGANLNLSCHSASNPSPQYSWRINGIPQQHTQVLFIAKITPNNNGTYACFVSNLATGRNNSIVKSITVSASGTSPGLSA
Method: (§2) Binding of the anti-MSLN mAbs, tested at a concentration range of 0.02 to 1000 nM (3-fold dilutions) was detected using anti-human Fab-HRP (Sigma, A0293).

human E-Cadherin = biological target: T4, human E-Cadherin (human, UniProt P12830 155-707); test: ELISA, antigen coated 1 µg/ml
T4 sequence (looked up): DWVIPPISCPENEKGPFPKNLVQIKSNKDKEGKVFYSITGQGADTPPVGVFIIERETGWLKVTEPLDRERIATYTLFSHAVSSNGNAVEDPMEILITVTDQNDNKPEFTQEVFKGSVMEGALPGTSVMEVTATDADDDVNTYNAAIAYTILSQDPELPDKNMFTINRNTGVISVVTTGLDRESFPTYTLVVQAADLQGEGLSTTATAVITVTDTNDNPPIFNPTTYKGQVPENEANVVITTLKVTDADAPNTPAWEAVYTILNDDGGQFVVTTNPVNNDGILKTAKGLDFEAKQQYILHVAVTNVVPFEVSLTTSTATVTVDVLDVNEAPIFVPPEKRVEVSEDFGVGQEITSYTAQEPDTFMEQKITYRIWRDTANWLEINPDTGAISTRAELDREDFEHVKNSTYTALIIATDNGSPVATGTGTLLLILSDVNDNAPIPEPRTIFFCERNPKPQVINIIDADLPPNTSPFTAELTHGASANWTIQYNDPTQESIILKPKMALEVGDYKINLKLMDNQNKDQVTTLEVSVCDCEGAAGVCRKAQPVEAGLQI
Method: as §2

human Thrombomodulin = human Thrombomodulin (human, UniProt P07204 19-515, limits assumed); test: ELISA, antigen coated 1 µg/ml
human Thrombomodulin, sequence (P07204 19-515 limits assumed): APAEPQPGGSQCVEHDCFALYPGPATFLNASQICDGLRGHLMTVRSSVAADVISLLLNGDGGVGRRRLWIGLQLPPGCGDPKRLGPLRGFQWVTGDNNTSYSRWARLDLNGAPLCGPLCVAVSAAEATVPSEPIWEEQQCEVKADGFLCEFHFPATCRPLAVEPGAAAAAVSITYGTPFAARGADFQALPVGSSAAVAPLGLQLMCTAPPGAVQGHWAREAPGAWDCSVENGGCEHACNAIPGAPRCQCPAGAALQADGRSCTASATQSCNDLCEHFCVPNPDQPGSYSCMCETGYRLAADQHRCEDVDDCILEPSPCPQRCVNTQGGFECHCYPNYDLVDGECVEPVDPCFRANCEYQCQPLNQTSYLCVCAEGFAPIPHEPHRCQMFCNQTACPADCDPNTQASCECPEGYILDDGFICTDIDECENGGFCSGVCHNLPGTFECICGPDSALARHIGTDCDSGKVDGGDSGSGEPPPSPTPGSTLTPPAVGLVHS
Method: as §2

human EpCAM-hFc = biological target: T5, human EpCAM-hFc (human, UniProt P16422 24-265, limits assumed); test: ELISA, antigen coated 1 µg/ml
T5 sequence (looked up): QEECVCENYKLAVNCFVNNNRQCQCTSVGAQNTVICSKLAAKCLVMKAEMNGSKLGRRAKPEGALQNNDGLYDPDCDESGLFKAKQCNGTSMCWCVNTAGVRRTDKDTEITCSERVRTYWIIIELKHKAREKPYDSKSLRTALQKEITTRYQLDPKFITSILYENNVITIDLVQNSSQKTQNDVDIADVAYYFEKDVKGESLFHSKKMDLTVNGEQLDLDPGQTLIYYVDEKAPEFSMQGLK
Method: as §2

hMSLN-His-Avi [2] = biological target: T6, hMSLN-His-Avi (human, UniProt Q13421 296-598, single biotin on the Avi tag in the biotinylated form); test: ELISA, hMSLN-His-Avi coated 1 µg/ml
T6 construct: Monomeric; also called human MSLN-His-Avi; hMSLN-Avi-His
T6 sequence (Q13421 other isoform, or with tags, fused parts or gaps): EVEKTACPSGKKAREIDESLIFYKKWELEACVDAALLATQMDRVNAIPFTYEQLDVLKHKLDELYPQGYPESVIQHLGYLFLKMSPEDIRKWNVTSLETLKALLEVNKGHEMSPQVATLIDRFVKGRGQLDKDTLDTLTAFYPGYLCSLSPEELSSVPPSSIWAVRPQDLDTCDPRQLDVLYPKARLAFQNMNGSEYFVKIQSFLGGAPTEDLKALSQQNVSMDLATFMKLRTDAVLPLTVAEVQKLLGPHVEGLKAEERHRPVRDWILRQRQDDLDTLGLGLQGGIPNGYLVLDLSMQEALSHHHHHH

hMSLN-His-Avi [3] = biological target: T6, hMSLN-His-Avi; test: SPR, hMSLN-His-Avi immobilised at 50 RU
hMSLN-His-Avi [4] = biological target: T6, hMSLN-His-Avi; test: SPR, hMSLN-His-Avi immobilised at 100 RU
[5] = biological target: T7, mouse CD137 ligand on DO11.10 cells (mouse, UniProt P41274 1-309); test: flow cytometry, detected with anti mouse Fc antibody
T7 construct: whole, on cells
T7 sequence (looked up): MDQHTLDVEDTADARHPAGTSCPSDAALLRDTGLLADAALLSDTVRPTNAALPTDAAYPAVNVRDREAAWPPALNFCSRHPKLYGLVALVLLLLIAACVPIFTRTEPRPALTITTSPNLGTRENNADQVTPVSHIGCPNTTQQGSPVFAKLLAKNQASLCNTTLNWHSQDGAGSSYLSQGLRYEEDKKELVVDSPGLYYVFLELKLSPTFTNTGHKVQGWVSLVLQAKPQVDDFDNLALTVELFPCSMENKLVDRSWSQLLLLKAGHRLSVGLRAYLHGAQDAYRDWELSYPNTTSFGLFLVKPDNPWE
Method: Cells were incubated with the CD137 antigens for 1 hour, and then a fluorescently labelled anti mouse Fc fragment antibody was used to detect cell binding.

mouse CD40, sequence (P27512 24-193 limits assumed): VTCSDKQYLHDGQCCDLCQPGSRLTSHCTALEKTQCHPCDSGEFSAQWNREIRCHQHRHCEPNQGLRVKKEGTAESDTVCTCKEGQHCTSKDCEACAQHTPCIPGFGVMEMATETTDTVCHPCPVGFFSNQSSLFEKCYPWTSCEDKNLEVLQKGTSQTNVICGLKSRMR

B1: FS22m-063 in mock mAb^2 (HelD1.3) format (bispecific antibody, human IgG1, kappa, L234A L235A)
heavy: QVQLQESGPGLVRPSQTLSLTCTVSGSTFSGYGVNWVRQPPGRGLEWIGMIWGDGNTDYNSALKSRVTMLVDTSKNQFSLRLSSVTAADTAVYYCARERDYRLDYWGQGSLVTVSSASTKGPSVFPLAPSSKSTSGGTAALGCLVKDYFPEPVTVSWNSGALTSGVHTFPAVLQSSGLYSLSSVVTVPSSSLGTQTYICNVNHKPSNTKVDKKVEPKSCDKTHTCPPCPAPEAAGGPSVFLFPPKPKDTLMISRTPEVTCVVVDVSHEDPEVKFNWYVDGVEVHNAKTKPREEQYNSTYRVVSVLTVLHQDWLNGKEYKCKVSNKALPAPIEKTISKAKGQPREPQVYTLPPSRDEPYWSYVSLTCLVKGFYPSDIAVEWESNGQPENNYKTTPPVLDSDGSFFLYSKLTVMNYRWELGNVFSCSVMHEALHNHYTQKSLSLSPG
light: DIQMTQSPASLSASVGETVTITCRASGNIHNYLAWYQQKQGKSPQLLVYNAKTLADGVPSRFSGSGSGTQYSLKINSLQPEDFGSYYCQHFWSTPRTFGGGTKLEIKRTVAAPSVFIFPPSDEQLKSGTASVVCLLNNFYPREAKVQWKVDNALQSGNSQESVTEQDSKDSTYSLSSTLTLSKADYEKHKVYACEVTHQGLSSPVTKSFNRGEC
notes: The entries are those of FS22m-063-AA/HelD1.3 (with LALA); also called FS22m-063-AA/HelD1.3; FS22m-063/HeID1.3
NF-κB luciferase reporter EC50, HEK.FRT.luc.mCD137 cells, crosslinked with Protein L [1]: 1440 pM | NF-κB luciferase reporter, fold-change in activity upon Protein L crosslinking [1]: 27 fold | binding result (mouse CD40): no binding (tested: at least 1 µM) | binding result (mouse GITR): no binding (tested: at least 1 µM)

B2: FS28-024 (mAb in G1-AA format) (antibody, human IgG1, V domains shown)
VH: EVQLLESGGGLVQPGGSLRLSCAASGFTLSYSSMSWVRQAPGKGLEWVSFITPSTGYTHYADSVKGRFTISRDNSKNTLYLQMNSLRAEDTAVYYCARRALTFDYWGQGTLVTVSS
VL: EIVLTQSPGTLSLSPGERATLSCRASQSVSSSYLAWYQQKPGQAPRLLIYGASSRATGIPDRFSGSGSGTDFTLTISRLEPEDFAVYYCQQASSYPLTFGQGTKVEIK
fold lower affinity for cyno MSLN than for human MSLN (cMSLN-His-Avi): ~5 fold | binding result (human CEACAM-5-His-Fc): no binding (tested: 1000 nM) | binding result (human E-Cadherin): no binding (tested: 1000 nM) | binding result (human Thrombomodulin): no binding (tested: 1000 nM) | binding result (human EpCAM-hFc): no binding (tested: 1000 nM) | EC50 (hMSLN-His-Avi [2]): ~500 pM | maximum binding signal (hMSLN-His-Avi [2]): 3 | Kd (hMSLN-His-Avi [3]): 770 pM | Kd (hMSLN-His-Avi [4]): 230 pM

B3: mCD137-mFc-Avi (Fc fusion, not shown: a dimerising Fc or GST; small tags and cut ends)
chain: VQNSCDNCQPGTFCRKYNPVCKSCPPSTFSSIGGQPNCNICRVCAGYFRFKKFCSSTHNAECECIEGFHCLGPQCTRCEKDCRPGQELTKQGCKTCSLGTFNDQNGTGVCRPWTNCSLDGRSVLKTGTTEKDVVCGPPVVSFSPSTTISVTPEGGPGGHSLQVL
modifications: one biotin on each Avi tag in the biotinylated form
notes: also called mouse dimeric CD137; mouse CD137-mFc-Avi
binding result [5]: binds
